Assay results as given in US10266566.
*1 amine or outer side, *2 acyl side, *3 side chain or, on linkers, in order; H or OH if unused. Where no end group is shown, it is not given here. [ ]: non-standard residue; d: D form. Trp(For) = Nin-formyl-tryptophan, O=Cn1cc(C[C@H](N[*:1])C(=O)[*:2])c2ccccc21; Tyr(Me) = O-methyl-tyrosine, COc1ccc(C[C@H](N[*:1])C(=O)[*:2])cc1; Phe(4-CONH2) = NC(=O)c1ccc(C[C@H](N)C(=O)O)cc1; Trp(1-Me) = Cn1cc(C[C@H](N)C(=O)O)c2ccccc21; Phe(4-Me) = Cc1ccc(C[C@H](N)C(=O)O)cc1; Cit = NC(=O)NCCC[C@H](N)C(=O)O; Lys(Me) = CNCCCC[C@H](N)C(=O)O

Tests used:
[1] = target: Human polyclonal immunoglobulin G (IgG) (human); assay: affinity chromatography of Cohn fraction II+III on peptide resin; binding buffer PBS + 0M NaCl
[2] = target: Human polyclonal immunoglobulin G (IgG) (human); assay: affinity chromatography of Cohn fraction II+III on peptide resin; binding buffer PBS + 0.13M NaCl
[3] = target: Human polyclonal immunoglobulin G (IgG) (human); assay: affinity chromatography of Cohn fraction II+III on peptide resin; binding buffer PBS + 0.25M NaCl
[4] = target: Human polyclonal immunoglobulin G (IgG) (human); assay: affinity chromatography, peptide on Toyopearl resin, pure human IgG load; yield = IgG eluted/IgG loaded, by Protein G chromatography
[5] = target: Human polyclonal immunoglobulin G (IgG) (human); assay: affinity chromatography, peptide resin, 10 mg/mL hIgG in PBS; 1st run, before any enzyme
[6] = target: Human polyclonal immunoglobulin G (IgG) (human); assay: affinity chromatography, peptide resin, 10 mg/mL hIgG in PBS; 3rd run, after alpha-chymotrypsin and then trypsin
[7] = target: Human polyclonal immunoglobulin G (IgG) (human); assay: affinity chromatography, peptide resin, 10 mg/mL hIgG in PBS; 2nd run, after resin contacted with alpha-chymotrypsin

Binder | IgG yield [1] [%] | IgG yield [2] [%] | IgG yield [3] [%] | IgG yield [4] [%] | IgG yield [5] [%] | IgG yield [6] [%] | IgG yield [7] [%]
Ac-HWRGWV-{Toyopearl AF‑Amino‑650M resin} [Ac-HWRGWV] | 91 | 84 | 83 |  |  |  | 
H[Phe(4-CONH2)][Cit][Cit]HL [HFCarbCitCitHL] |  |  |  | 53 |  |  | 
H[Trp(For)][Cit]G[Trp(For)]V (not fully specified (C-terminus)) [HWForCitGWForV] |  |  |  | 75 | 75 | 69 | 69
H[Tyr(Me)][Phe(4-Me)][Lys(Me)][Phe(4-Me)]D-{Toyopearl AF‑Amino‑650M resin} [HYMetFMetKMetFMetD] |  |  |  | 49 |  |  | 
HW[Cit]GWV-{Toyopearl AF‑Amino‑650M resin} [HWCitGWV] |  |  |  | 91 | 91 | 71 | 73
H[Trp(1-Me)]RG[Trp(1-Me)]V-{Toyopearl AF‑Amino‑650M resin} [HWMetRGWMetV] |  |  |  | 91 | 91 | 82 | 91
